# Measurements reported in patent US20020164696A1 (CHR HANSEN A S, published 2002).
# Square brackets hold non-standard residues; d marks the D form. Ends that are not written are not given here. Phe(4-NO2) = N[C@@H](Cc1ccc([N+](=O)[O-])cc1)C(=O)O
# T1: synthetic peptide corresponding to bovine kappa-CN (bovine)
# T1 construct: Synthetic substrate peptide, free N- and C-terminus as printed; also called Bt kappa-CN; bovine kappa-CN peptide
# T1 peptide: HPHPHLS[Phe(4-NO2)]MAI
# T2: synthetic peptide corresponding to camel kappa-CN (camel)
# T2 construct: Synthetic substrate peptide, free N- and C-terminus as printed; also called Cd kappa-CN; Cd kappa-CN peptide
# T2 peptide: RPRPRPS[Phe(4-NO2)]IAI
# B1: recombinant Camelus dromedarius chymosin (enzyme, UniProt Q9GK11 59-381, looked up)
# chain: GKVAREPLTSYLDSQYFGKIYIGTPPQEFTVVFDTGSSDLWVPSIYCKSNVCKNHHRFDPRKSSTFRNLGKPLSIHYGTGSMEGFLGYDTVTVSNIVDPNQTVGLSTEQPGEVFTYSEFDGILGLAYPSLASEYSVPVFDNMMDRHLVARDLFSVYMDRNGQGSMLTLGAIDPSYYTGSLHWVPVTLQQYWQFTVDSVTINGVAVACVGGCQAILDTGTSVLFGPSSDILKIQMAIGATENRYGEFDVNCGNLRSMPTVVFEINGRDYPLSPSAYTSKDQGFCTSGFQGDNNSELWILGDVFIREYYSVFDRANNRVGLAKAI
# notes: mature; also called Cd chymosin; camel chymosin
# Columns and labels:
# [1] = molecular target: T1, synthetic peptide corresponding to …; assay: cleavage kinetics of the synthetic peptide at pH 5.6, Lineweaver-Burke plots; binding inferred from KM
# Procedure: (§1) Two synthetic peptidases, which correspond to the chymosin sensitive regions of camel- and bovine κ-casein (CN), were proteolytically cleaved with bovine and camel chymosin, respectively. KM and kcat were determined at pH 5.6. Additionally, temperature and pH optima of these reactions were measured. The two following synthetic peptides were used in this study:
# (§2) The measurement of samples was repeated 3 to 6 times, the Michaelis-Menten and the turnover values were determined from Lineweaver-Burke plots with weighted linear regression of data.
# [2] = molecular target: T2, synthetic peptide corresponding to …; assay: as above
# Procedure: as §1, §2
binder,measurement,setting,value
B1,substrate binding relative to bovine chymosin,[1],~2 fold
same,substrate binding relative to bovine chymosin,[2],~2 fold
